Test results from patent US20170029841A1, “METHODS AND COMPOSITIONS FOR SELECTIVE REGULATION OF PROTEIN EXPRESSION” (priority 2015, published 2017).

B1: SEQ ID NO: 15: recombinant mts-siRNA target element sequence (nucleic acid)
DNA: TCGTCCAAACGTGACCGTGTGGCTAGAAGCAGAGGATGGCGATATGCACGTTATGCTTTCCTAGACTCTCACTGTAGTGG
modifications: chemistry not fully specified; the letters are possibly those of the target site
B2: SEQ ID NO: 14: recombinant mts-siRNA target element sequence (nucleic acid)
DNA: CCCAACGTGCATATCGCCATCCTCTGCTACGAGGGAATGTCATTGGTCGATGAGATGAGGGTGAATCGGATGTTGAGGTGGCACGATAGTTAAGGCGCAAGGGTAT
modifications: chemistry not fully specified; the letters are possibly those of the target site
B3: SEQ ID NO: 12: recombinant mts-siRNA target element sequence (nucleic acid)
DNA: AGACGACGACCGTGCATGGTGATGAATCACAGACGACGAACACGCATGTCGCATCGCCGTCCTCTCACACCATAGAACTGCAAATGTCCGCTCTTCACCGTTGTAGTCGTTGATGGTATTGGTGGTGACGACATCCTTGGTGTGCATGCACTGGTGAGTCACTGTTGTAC
B4: SEQ ID NO: 3: mts-siRNA target element, nucleotide positions 239 to 433 of cDNA SEQ ID NO: 18 (nucleic acid)
DNA: TCTAGCCACACGGTCACGTTTGGACGACCAATAATAGGCTTGCAACCCTTCAAATTGTGTCCATCAGCTTCCCAACGTGCATATCGCCATCCTCTGCTTCGTGTCCCATGTCACCACCCCCACTCTTCCTCTTTACATGCAATGCAAATAAAGCAGATCCAACGTGGATGAGGGTGAATCGGATGTTGAGGTGGG
modifications: Zea mays
B5: SEQ ID NO: 13: recombinant mts-siRNA target element sequence (nucleic acid)
DNA: ACGTGATAACTTCTATGCTGGCTGTGATTGCTAGTTGAAGAAAAGAATAGATATGGTGACATCAAGTTTCCACTGCGTGACG
modifications: chemistry not fully specified; the letters are possibly those of the target site
B6: SEQ ID NO: 2: mts-siRNA target element, single nucleotide change (T69A) relative to SEQ ID NO: 1 (nucleic acid)
DNA: AGACGACGACCGTGCATGGTGATGAATCACAGACGACGAACACGCATGTCGCATCGCCGTCCTCTTTGAATCACACAGCATCACCTTCTTCGCTCTACTACTCCCCCGAGCAATCACCGACCAATAACACCAACCATCAACCTCCCCCGTCGCCGCCGCCTTCACCGTCCTCCCCTCACACCATAGAACTGCAAATGTCCG
B7: SEQ ID NO: 16: recombinant mts-siRNA target element sequence (nucleic acid)
DNA: GACAACAAGCACCTTCTTGCCTTGCAGTATTGGTGGTGACGACATCCTTGGTGTGCATGCACTGGTGAGTCACTGTTGTACGTGATAACTTCTATGCTGGCTGTGATTGCTAGTTGAAGAAAAGAATAGATATGGTGACATCAAGTTTCCACTGCGTGACGCCAACGTGCATATCGCCATCCTCTGCTACGAGGGAATGTCATTGGTCGATGAGATGAGGGTGAATCGGATGTTGAGGTGGCACGATAGTTAAGGCGCAAGGGT
B8: SEQ ID NO: 9: reverse complement of mts-siRNA target element, 99% identity to positions 191 to 490 of cDNA SEQ ID NO: 22 (nucleic acid)
DNA: GGACAACAAGCACCTTCTTGCCTTGCAAGGCCTCCCTTCCCTATGGTAGCCACTTGAGTGGATGACTTCACCTTAAAGCTATTGATTCCCTAAGTGCCAGACATAATAGGCTATACATTCTCTCTGGTGGCAACAATGAGCCATTTTGGTTGGTGTGGTAGTCTATTATTGAGTTTTTTTTGGCACCGTACTCCCATGGAGAGTAGAAGACAAACTCTTCACCGTTGTAGTCGTTGATGGTATTGGTGGTGACGACATCCTTGGTGTGCATGCACTGGTGAGTCACTGTTGTACTCGGCG
modifications: Zea mays

Legend:
[1] = test system: maize tissue pools (tassel, ear, leaf, root, stem); assay: siRNA profiling microarray assay of mts-siRNA sequences across maize tissues; conditions: for 01DKD2 V8-V9 Tassel relative signal value: germplasm 01DKD2, V8-V9 tassel; for 01DKD2 V10-V12 Tassel relative signal value: germplasm 01DKD2, V10-V12 tassel; for 01DKD2 Other Tissue relative signal value: germplasm 01DKD2, combined signals from other tissue; for LH244 V8-V9 Tassel relative signal value: germplasm LH244, V8-V9 tassel; for LH244 V10-V12 Tassel relative signal value: germplasm LH244, V10-V12 tassel; for LH244 Other Tissue relative signal value: germplasm LH244, combined signals from other tissue
In short: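 Total RNA from LH244 or 01DKD2 inbred maize tissue pools hybridized to microfluidic chips with triplicate complementary probes for 1,200 mts-siRNAs. Signals background-subtracted and normalized, reported as relative values with standard error. Differential expression by t-test, p<0.05.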

[2] = test system: transgenic maize R0 plants (double copy events); assay: R0 plant greenhouse glyphosate spray: vegetative tolerance and induced male sterility; format: in vivo; conditions: for % Vegetative Tolerant / % Vegetative Tolerance: glyphosate 0.75 lb ae/acre at V5 then V8; for % Vegetative Tolerant: <=10% injury 7 days after V5 spray
Experimental: Transformation vectors containing the recombinant DNA constructs were used with an Agrobacterium-based transformation method and maize immature embryos and techniques known in the art. Leaf samples of R0 plants were collected and molecular analysis was conducted to select transgenic plants containing a single copy (one insertion) or a double copy (two independent insertions) of the recombinant DNA construct and no presence of vector backbone. Single copy events were not sprayed with glyphosate and were selfed and advanced for R1 seed collection, while double copy events were used for R0 glyphosate spray to assess vegetative tolerance and induced male sterility. Transgenic plants that were not sprayed with glyphosate had normal anthesis, normal pollen shedding, and normal pollen development as determined by Alexandar staining and microscopic observation.
Double copy R0 events were used in testing to approximate a single copy homozygous event. Plants were sprayed with glyphosate at two different growth stages to determine if the presence of the mts-siRNA target element in the recombinant DNA construct provided vegetative glyphosate tolerance and glyphosate-induced tassel sterility. The plants were sprayed in a greenhouse with 1× glyphosate (0.75 lb ae/acre) applied at the V5 stage followed by 1× glyphosate (0.75 lb ae/acre) applied at the V8 stage. Seven days after the V5 stage glyphosate application, plants were scored for vegetative injury with scores of ≦10% injury considered as showing vegetative glyphosate tolerance (% Vegetative Tolerant). Male sterility was measured in two ways. […] Anthers were then collected and dissected to microscopically observe pollen development. Anthers for each event were tested for no viable pollen grains produced as detected by Alexandar staining under microscopic observation and scored as not producing any viable pollen (% No Pollen). In plants not sprayed with glyphosate, tassel development, anther extrusion, and pollen development were normal.
The mts-siRNA target elements were tested in multiple transformation vector configurations. Each transformation vector was used to produce multiple R0 plants with each R0 plant representing a unique transgenic event made using the same transformation vector. Data for three different transformation vector configurations are provided as Tables 11 and 12.

[3] = vector configuration A, no anther extrusion up to S90+12 after V8 glyphosate
[4] = vector configuration A, no viable pollen by Alexandar staining

Molecule	01DKD2 V8-V9 Tassel relative signal value [1]	01DKD2 V10-V12 Tassel relative signal value [1]	01DKD2 Other Tissue relative signal value [1]	LH244 V8-V9 Tassel relative signal value [1]	LH244 V10-V12 Tassel relative signal value [1]	LH244 Other Tissue relative signal value [1]	% Completely Male-sterile [2, 3]	% No Pollen [2, 4]	further results
SEQ ID NO: 47: mts-siRNA sequence aligning to cDNA SEQ ID NO: 19 (TGGTGTGGTCGTTAGCTACTTTA; expressed or natural sequence)	12.5	1051.5	4	157.5	900.7	15.5	–	–	–
SEQ ID NO: 82: mts-siRNA sequence aligning to cDNA SEQ ID NO: 22 (AGGCCTCCCTTCCCTATGGTAGCC; expressed or natural sequence)	71.5	211	54.8	95.5	137	217.4	–	–	–
SEQ ID NO: 40: mts-siRNA sequence aligning to cDNA SEQ ID NO: 18 (CCTTGCGCCTTAACTATCGTGC; expressed or natural sequence)	7.5	452	2.8	119	448.7	1.5	–	–	–
SEQ ID NO: 70: mts-siRNA sequence aligning to cDNA SEQ ID NO: 22 (CATGCACTGGTGAGTCACTGTTG; expressed or natural sequence)	3	873	4	56.5	694	1.8	–	–	–
SEQ ID NO: 34: mts-siRNA sequence aligning to cDNA SEQ ID NO: 18 (ACGTGCATATCGCCATCCTCTGCT; expressed or natural sequence)	8.5	982	3.5	848.5	572.7	3	–	–	–
B1	–	–	–	–	–	–	none	0%	% Vegetative Tolerant ([2]; vector configuration A, listed as 15): 90%; % Completely Male-sterile ([2]; vector configuration A, no anther extrusion up to S90+12 after V8 glyphosate, listed as 15): 0%
B2	–	–	–	–	–	–	none	0%	% Vegetative Tolerant ([2]; vector configuration A, listed as 14): 90%; % Completely Male-sterile ([2]; vector configuration A, no anther extrusion up to S90+12 after V8 glyphosate, listed as 14): 0%
B3	–	–	–	–	–	–	–	–	% Completely Male-sterile ([2]; vector configuration B): 50%; % No Pollen ([2]; vector configuration B): 20%; % Vegetative Tolerance ([2]; vector configuration B): 100%; % Completely Male-sterile ([2]; vector configuration C): 23%; % No Pollen ([2]; vector configuration C): 0%; % Vegetative Tolerance ([2]; vector configuration C): 87%
B4	–	–	–	–	–	–	10%	0%	% Vegetative Tolerant ([2]; vector configuration A): 90%
B5	–	–	–	–	–	–	none	0%	% Vegetative Tolerant ([2]; vector configuration A, listed as 13): 100%; % Completely Male-sterile ([2]; vector configuration A, no anther extrusion up to S90+12 after V8 glyphosate, listed as 13): 0%
B6	–	–	–	–	–	–	–	82%	tassel male sterility and pollen by Alexandar stain ([2]; double copy R0 events with SEQ ID NO: 2, glyphosate 0.75 lb ae/acre at V5 then V8): very few aborted pollen grains or no pollen grains were detected; % Vegetative Tolerant ([2]; vector configuration A, listed as 2): 100%; % Completely Male-sterile ([2]; vector configuration A, no anther extrusion up to S90+12 after V8 glyphosate, listed as 2): 82%
B7	–	–	–	–	–	–	50%	0%	% Vegetative Tolerant ([2]; vector configuration A): 80%
B8	–	–	–	–	–	–	–	0%	% Vegetative Tolerant ([2]; vector configuration A, listed as 9): 100%; % Completely Male-sterile ([2]; vector configuration A, no anther extrusion up to S90+12 after V8 glyphosate, listed as 9): 40%
